Data taken from patent CN1800373A (RADIOLOGY INST OF PLA MILITARY, dated 2006).
Each block holds one molecule with its values, some of them ahead of it.

Assays:
[1] = target: 正常人IgG (北京中杉金桥有限公司); test: ELISA, coated normal human IgG 0.5 μg/mL, negative control
[2] = target: VEGFR-3/Ig重组蛋白 (R&D research system corp.) (human) (UniProt P35916); test: ELISA, coated VEGFR-3/Fc 0.5 μg/mL, negative control
[3] = target: VEGFR-3/Ig重组蛋白 (R&D research system corp.) (human) (UniProt P35916); test: ELISA, coated VEGFR-3/Fc 0.5 μg/mL, scFv at 65 μg/mL
[4] = target: VEGFR-3/Ig重组蛋白 (R&D research system corp.) (human) (UniProt P35916); test: ELISA, coated VEGFR-3/Fc 0.5 μg/mL, scFv at 6.5 μg/mL
[5] = target: VEGFR-3/Ig重组蛋白 (R&D research system corp.) (human) (UniProt P35916); test: ELISA, coated VEGFR-3/Fc 0.5 μg/mL, scFv at 13 μg/mL
[6] = target: VEGFR-3/Ig重组蛋白 (R&D research system corp.) (human) (UniProt P35916); test: ELISA, coated VEGFR-3/Fc 0.5 μg/mL, supernatant of hybridoma BDD073
[7] = target: T1, HEL细胞表面表达的VEGFR-3 (human, UniProt P35916 25-1363); test: Western blot of HEL cell lysate (Fig. 4)
T1 construct: whole, on cells; On whole HEL cells in flow cytometry; in HEL cell lysate in the immunoblot; also called VEGFR-3多肽 (175kDa, 125kDa bands of HEL lysate)

[8] = target: T2, VEGFR-3/Ig重组蛋白 (R&D research system corp.) (human, UniProt P35916 25-776); test: ELISA-type assay, OD450; VEGFR-3/Fc 1 and 2 μg/mL mixed with 20 μg/mL GST-VEGF-D (Fig. 1)
T2 construct: Bought protein; also called VEGFR-3/Fc; VEGFR-3/IgG; not shown: Ig/Fc part of the bought fusion
T2 sequence (looked up): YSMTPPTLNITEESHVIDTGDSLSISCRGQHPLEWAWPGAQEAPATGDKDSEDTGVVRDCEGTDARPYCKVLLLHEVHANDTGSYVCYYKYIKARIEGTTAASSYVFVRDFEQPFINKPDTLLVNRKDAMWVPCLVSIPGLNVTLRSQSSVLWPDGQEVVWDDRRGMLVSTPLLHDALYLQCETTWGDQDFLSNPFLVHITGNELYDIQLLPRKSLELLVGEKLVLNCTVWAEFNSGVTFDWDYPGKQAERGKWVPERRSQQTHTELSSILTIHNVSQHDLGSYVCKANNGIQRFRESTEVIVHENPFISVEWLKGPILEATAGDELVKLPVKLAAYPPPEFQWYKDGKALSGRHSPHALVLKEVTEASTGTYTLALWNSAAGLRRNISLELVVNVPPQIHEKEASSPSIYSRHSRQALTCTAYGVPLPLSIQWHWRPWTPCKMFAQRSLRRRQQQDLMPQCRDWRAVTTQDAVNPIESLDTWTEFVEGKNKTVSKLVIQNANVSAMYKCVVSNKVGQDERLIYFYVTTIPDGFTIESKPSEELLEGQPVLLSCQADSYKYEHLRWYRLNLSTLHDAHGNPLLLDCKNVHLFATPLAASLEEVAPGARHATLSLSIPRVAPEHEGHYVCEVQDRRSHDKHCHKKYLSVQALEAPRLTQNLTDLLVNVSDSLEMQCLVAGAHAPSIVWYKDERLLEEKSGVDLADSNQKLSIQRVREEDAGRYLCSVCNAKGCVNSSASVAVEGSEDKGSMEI

- OD 450 [1]: 0.064 OD450
- OD 450 [2]: 0.05 OD450
Molecule: 正常鼠血清(1∶1000)

- OD 450 [3]: 1.01 OD450
- OD 450 [4]: 0.515 OD450
- OD 450 [5]: 0.73 OD450
B1: 可溶性抗VEGFR-3单链抗体VL-linker-VH (scFv, not shown: large carriers)
scFv: DIVLTQSPASLAVSLGQRATISCRASKSVSTFGYSYMHWYQQKPGQPPKLLIYLASNLESGVPARFSGSGSGTDFTLNIHPVEEEDAATYYCQHSRELMYTFGGGTKLEIKRGGGGSGGGGSGGSQVQLQESGGGLVRPRGSLKLSCAASGFTFNTYAMNWVRQAPGKGLEWIARIRNKSNNYATYYANSVKDRFTISRGDSQSMLYLQMNNLKTEDTAMYYCVRDGYSLVHWGHGTLVTVS

- OD 450 [6]: 0.889 OD450
- binding result [7]: binds
B2: 抗人VEGFR-3的单克隆抗体ABDD073 (antibody, mouse IgG2a, V domains shown)
VH: QVQLQESGGGLVRPRGSLKLSCAASGFTFNTYAMNWVRQAPGKGLEWIARIRNKSNNYATYYANSVKDRFTISRGDSQSMLYLQMNNLKTEDTAMYYCVRDGYSLVHWGHGTLVTVS
VL: DIVLTQSPASLAVSLGQRATISCRASKSVSTFGYSYMHWYQQKPGQPPKLLIYLASNLESGVPARFSGSGSGTDFTLNIHPVEEEDAATYYCQHSRELMYTFGGGTKLEIKR
notes: The 132-residue entry was amplified with a primer that starts at ATG, so it may hold a leader; also called BDD073上清; monoclonal antibody of hybridoma BDD073 CGMCC No.1537

- binding result [8]: binds
B3: 重组人GST-VEGF-D (ligand, human, UniProt O43915 89-205, looked up)
chain: FAATFYDIETLKVIDEEWQRTQCSPRETCVEVASELGKSTNTFFKPPCVNVFRCGGCCNEESLICMNTSTSYISKQLFEISVPLTSVPELVPVKVANHTGCKCLPTAPRHPYSIIRR
notes: domain: VHD; Expressed in E. coli BL21(DE3), 38 kD, purified on a GST column; not shown: GST tag encoded by vector pGEX-5X-1 (Amersham)
